{"source": "paper PMC7463542", "about": "“Automated GMP-Compliant Production of [^68Ga]Ga-DO3A-Tuna-2 for PET Microdosing Studies of the Glucagon Receptor in Humans” (Pharmaceuticals, 2020)", "key": {"[1]": {"assay": "Safety, pharmacology, and toxicology studies in animals", "type": "in vivo"}, "[2]": {"assay": "Storage stability of the aqueous precursor solution at −20 °C (formation of oxidized product)", "type": "physicochemical", "conditions": "at least six months"}, "glucagon receptor (GCGR) [3]": {"target": "T1, glucagon receptor (GCGR) (Homo sapiens, UniProt P47871)", "T1 construct": "strong liver uptake expected due to the high glucagon receptor expression on hepatocytes; from tissue; host or cells: liver (hepatocytes) of living human subjects with type 2 diabetes", "T1 sequence (P47871 26-477)": "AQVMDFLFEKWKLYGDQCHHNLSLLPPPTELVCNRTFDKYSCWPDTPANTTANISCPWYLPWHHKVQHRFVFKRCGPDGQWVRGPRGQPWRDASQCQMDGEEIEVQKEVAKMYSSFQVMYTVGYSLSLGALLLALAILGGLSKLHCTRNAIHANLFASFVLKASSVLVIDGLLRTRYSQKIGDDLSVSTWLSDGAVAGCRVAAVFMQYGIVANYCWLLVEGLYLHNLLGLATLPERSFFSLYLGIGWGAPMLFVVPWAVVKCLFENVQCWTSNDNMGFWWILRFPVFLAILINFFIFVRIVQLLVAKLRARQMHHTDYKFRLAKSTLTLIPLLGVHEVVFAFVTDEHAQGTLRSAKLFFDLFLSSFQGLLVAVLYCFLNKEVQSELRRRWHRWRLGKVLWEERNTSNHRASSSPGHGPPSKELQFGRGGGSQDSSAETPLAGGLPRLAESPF", "type": "in vivo, humans", "source_text": "[^68Ga]Ga-DO3A-VS-Cys^40-Tuna-2 PET/CT was used for assessing the hepatic GCGR receptor density and availability within a phase Ib, open-label study investigating the receptor occupancy of a dual GLP1/GCG agonist (ClinicalTrials.gov: NCT03350191). The results of the full receptor occupancy study, as well as the human biodistribution and dosimetry of [^68Ga]Ga-DO3A-VS-Cys^40-Tuna-2, will be reported separately. The study was approved by the Swedish Medical Products Agency and the regional ethical review board (Dnr 2017/395; EudraCT nr. 2017-001789-23).\nBriefly, individuals with T2D were enrolled in the study and signed informed consent. They (n = 13) were placed in the supine position with the liver in the 20 cm axial PET field of view of a Discovery MI PET/CT scanner (GE Healthcare). [^68Ga]Ga-DO3A-VS-Cys^40-Tuna-2 (target dose 0.5 MBq/kg, <0.2 µg/kg peptide) was administered intravenously as a bolus followed by a 60 min dynamic PET acquisition in list-mode. The PET list mode data were reconstructed into 30 frames (12 × 10, 6 × 30, 5 × 120, 5 × 300, 2 × 600 s) using an iterative VPFX-S algorithm (3 iterations, 3 subsets, matrix 256 × 256, Z-axis post-filter 3 mm) with all relevant corrections performed."}, "[4]": {"assay": "Sensitivity of the labelled product to (radiolytic) oxidation", "type": "physicochemical", "conditions": "compared with [^68Ga]Ga-DO3A-VS-Cys^40-Exendin-4; labeling conditions"}, "[5]": {"type": "physicochemical", "experimental": "The aseptic production was conducted in a GMP grade A workstation (unidirectional laminar airflow workbench (LAFW)) situated in a cleanroom with GMP grade B air quality. The ^68Ge/^68Ga generator (GalliaPharm®, Eckert & Ziegler, Berlin, Germany) and Modular PharmLab labeling synthesis platform (Eckert & Ziegler Eurotope, Berlin, Germany) were placed in the LAFW. A high-performance liquid chromatography system (LaChrom, Hitachi, VWR) consisting of an L-2130 pump, UV detector (L-2400), and radiation flow detector (Bioscan) coupled in series was used for product quality control. Separation of the analytes was accomplished using an analytical column with a stationary reversed phase (C-4; Vydac-C4; 50 × 4.6 mm; particle size: 3 µm). The conditions were as follows: A = 10 mM trifluoroacetic acid in water; B = 100% acetonitrile (MeCN) with 10 mM TFA with UV-detection at 220 nm; linear gradient elution: 0 min at 24% B, 0–8 min from 24 to 45% B, 8–10 min at 45% B, 10–15 min at 24% B; flow rate was 2.0 mL/min. Data acquisition and handling were performed using the EZChrom Elite Software Package (version 1.3).\nQuality control on the chemical purity, radiochemical purity, and determination of the peptide concentration was performed using UV-Radio-HPLC. The development and validation of the method were conducted using two different reversed-phase columns Vydac-C4 and Aeris-C4 with mobile phases of 0.1% TFA in water as the A mobile phase and 0.1% TFA in acetonitrile as the B mobile phase. The gradient of B increased from 25% to 40% within 30 min for Aeris-4 and B increased from 24 to 45% within 8 min, followed by 2 min of isocratic elution. The recovery of radioactivity from the analytical column was investigated, in order to confirm that no radioactive product or impurities were left on the column, by collecting HPLC effluent with and without an analytical column and measuring the radioactivity. The tests were performed for both the product ([^68Ga]Ga-DO3A-VS-Cys^40-Tuna-2) and free ^68Ga(III). Specificity, linearity, and precision as repeatability were validated for both UV- and radio-detectors.\nThree successful sequential productions were performed for the manufacturing validation. A fraction of pre-determined volume was kept for the subsequent determination of ^68Ge content and solvent residual content. The stability of the product at room temperature was monitored by UV-radio-HPLC for 2 h."}, "glucagon receptor (GCGR) [6]": {"test_system": "glucagon receptor (GCGR)", "conditions": "in vitro and in vivo in rats and non-human primates; 16 (previous studies); cited from earlier work", "source_text": "The manufacturing process of [^68Ga]Ga-DO3A-VS-Cys^40-Tuna-2 was automated for clinical use to meet the radiation safety and good manufacturing practice (GMP) requirements. Methods: The automated synthesis platform (Modular-Lab PharmTrace, Eckert & Ziegler, E ..."}}}
{"substance": "TzaD-SerQGTFTSDYSKQLDE*QRAK*EFIEWLLATGPESGAPPPS (sidechain bridge or staple) [DO3A-VS-Cys^40-Tuna-2, unlabelled precursor (GMP-grade API starting material): Tuna-2 peptide coupled to DOTA bifunctional chelator via Cys40 and vinyl sulfone linker]", "values": [{"measurement": "Toxicity related to the substance", "setting": "[1]", "value": "no DO3A-VS-Cys^40-Tuna-2 related toxicity"}, {"measurement": "Formation of oxidized product upon storage", "setting": "[2]", "value": "no formation of the oxidized product was detected"}]}
{"substance": "TzaD-SerQGTFTSDYSKQLDE*QRAK*EFIEWLLATGPESGAPPPS (sidechain bridge or staple) [[^68Ga]Ga-DO3A-VS-Cys^40-Tuna-2, ^68Ga-labeled peptide-based PET imaging agent targeting GCGR; 39-residue Tuna-2 coupled to DOTA chelator via Cys40 and vinyl sulfone linker]", "values": [{"measurement": "Binding in the liver", "setting": "glucagon receptor (GCGR) [3]; T2D patients, IV bolus, baseline examinations, 60 min dynamic PET", "value": "strong binding in the liver"}, {"measurement": "Plasma kinetics", "setting": "glucagon receptor (GCGR) [3]; in vivo, iv", "value": "rapid plasma kinetics"}, {"measurement": "Sensitivity to oxidation", "setting": "[4]", "value": "less sensitive to the oxidation"}, {"measurement": "Stability: radiochemical purity 2 h postproduction", "setting": "[5]", "value": "97.9 ± 0.9", "unit": "%"}, {"measurement": "RCP at ambient temperature for at least 2 h", "setting": "[5]; ambient temperature, Figure 5, as stated in discussion", "value": "over 95%"}, {"measurement": "Time for which the product was stable at ambient temperature", "setting": "[5]; formulated product, ambient temperature, UV-radio-HPLC", "value": "at least 2 h"}, {"measurement": "Radiochemical purity (RCP) after production, 1 h and 2 h post-production", "setting": "[5]; formulated product, room temperature, radioactivity traces of Figure 5", "value": "over 98%"}, {"measurement": "Binding to the glucagon receptor (GCGR)", "setting": "glucagon receptor (GCGR) [6]", "value": "high-affinity specific binding"}]}
